Data taken from patent publication US20240368239A1, “Novel bispecific protein and use thereof” (SL METAGEN, priority 2020, published 2024).
Read-outs that look alike come from different tables or passages of the source. Values belong to the molecule of their own block, whether it stands above or below them.

How the values were obtained:
GLP-2 receptor = biological target: T1, GLP-2 receptor (Homo sapiens, UniProt O95838); test: GLP-2 in vitro activity, cAMP/CNG channel membrane potential fluorescence assay (Human GLP2R ACTOne cell line)
T1 sequence (O95838 1-553): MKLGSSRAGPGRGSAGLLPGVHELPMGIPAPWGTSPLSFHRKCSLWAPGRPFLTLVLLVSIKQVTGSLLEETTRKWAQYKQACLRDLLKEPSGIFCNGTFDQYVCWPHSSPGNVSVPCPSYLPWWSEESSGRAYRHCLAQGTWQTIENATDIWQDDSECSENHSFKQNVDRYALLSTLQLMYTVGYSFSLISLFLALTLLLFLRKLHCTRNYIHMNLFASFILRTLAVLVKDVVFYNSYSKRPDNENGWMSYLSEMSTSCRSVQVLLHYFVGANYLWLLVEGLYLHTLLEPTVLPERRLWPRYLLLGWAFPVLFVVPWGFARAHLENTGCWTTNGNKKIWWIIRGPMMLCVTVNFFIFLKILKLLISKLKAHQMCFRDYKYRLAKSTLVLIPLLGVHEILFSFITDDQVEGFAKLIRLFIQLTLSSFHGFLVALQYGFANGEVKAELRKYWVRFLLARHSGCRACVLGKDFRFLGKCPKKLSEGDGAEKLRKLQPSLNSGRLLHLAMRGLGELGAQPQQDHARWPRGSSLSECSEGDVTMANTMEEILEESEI

B6 normal mice = test: Small intestine weight and body weight (GLP-1-Fc homodimer, GLP-2-Fc homodimer, MG12-1, MG12-4); assay type: in vivo; conditions: SC twice a week, 4 doses; homodimers 10 nmol/kg, MG12 20 nmol/kg
Source text: In addition, the present inventors conducted the same experiment as above while only varying the administered substance, in order to confirm whether the bispecific fusion proteins (MG12-1 and MG12-4) designed in a form other than MG12-5 also increase the small intestine weight and energy absorption rate of experimental animals. Specifically, PBS, 10 nmol/kg GLP-1-Fc homodimer, 10 nmol/kg GLP-2-Fc homodimer, 20 nmol/kg MG12-1, and 20 nmol/kg MG12-4 were subcutaneously administered. The drug was administered twice a week for a total of 4 times for 2 weeks. After 4 doses, the body weight was measured before autopsy, and the small intestine was excised after the autopsy and weighed. After the autopsy, the entire gastrointestinal tract of the mouse was separated, the mesentery and the pancreas were excised, and the area where the ileum and the cecum meet was cut to separate the small intestine and the large intestine. The separated small intestine was perfused and washed with 10% neutral formalin to remove the contents, and was weighed after removing the neutral formalin with an absorbent towel.

Balb/c-nude mice = test: PET-MRI tissue distribution of Zr89-labelled proteins; assay type: in vivo; conditions: Zr89 label, SC, 1-168 hours
Source text: Next, the present inventors performed an experiment in Balb/c-nude mice in order to observe the distribution in each tissue organ following the administration of a substance. Zr^89 was used as a radiotracer for tracking the distribution after administration of each substance. Each substance to be administered was labeled with Zr^89 as a reaction condition and a chelator selected through a preliminary test. The labeled Zr^89-protein was purified using a PD-10 column, and Zr^89 labeling efficiency and purity were confirmed using Radio TLC and SEC-HPLC. The labeling efficiency of the Zr^89-protein of 90% or more and the purity of 80% or more were determined to be appropriate, and the labeled protein was administered subcutaneously at 0.2 mCi/0.2 cc. Each administration substance was administered to three animals and static images for 20 minutes were obtained using PET-MRI at 1 hour, 6 hours, 24 hours, 48 hours, and 168 hours after injection. Through image analysis, the distribution of drugs as a function of time in the liver, small intestine, and large intestine was expressed as SUV (Standardized Uptake Value) and comparatively analyzed.

GLP-2 activity lower than that of other variants (GLP-2 receptor): 4-5 times
B1: MG12-2: Knob/hole Fc heterodimer: GLP-2 (SEQ 17), glycan linker, second fusion protein SEQ 33; GLP-1 (SEQ 1), first fusion protein SEQ 25 (protein)
chain 1: HGDGSFSDEMNTILDNLAARDFINWLIQTKITDGGGGSGGGGSGGGGSAKNTTAPATTRNTTRGGEEKKKEKEKEEQEERTHTCPPCPSHTQPLGVFLFPPKPKDTLMISRTPEVTCVVVDVSQEDPEVQFNWYVDGVEVHNAKTKPREEQFNSTYRVVSVLTVLHQDWLNGKEYKCKVSNKGLPSSIEKTISKAKGQPREPQVYTLPPCQEEMTKNQVSLWCLVKGFYPSDIAVEWESNGQPENNYKTTPPVLDSDGSFFLYSRLTVDKSRWQEGNVFSCSVMHEALHNHYTQKSLSLSLGK
chain 2: HGEGTFTSDVSSYLEGQAAKEFIAWLVKGRGGGGGSGGGGSGGGGSEKEKEEQEERTHTCPPCPSHTQPLGVFLFPPKPKDTLMISRTPEVTCVVVDVSQEDPEVQFNWYVDGVEVHNAKTKPREEQFNSTYRVVSVLTVLHQDWLNGKEYKCKVSNKGLPSSIEKTISKAKGQPREPQVCTLPPSQEEMTKNQVSLSCAVKGFYPSDIAVEWESNGQPENNYKTTPPVLDSDGSFFLVSRLTVDKSRWQEGNVFSCSVMHEALHNHYTQKSLSLSLGK

EC50 (GLP-2 receptor; Table 3, GLP-2 activity): 0.44 nM | EC50 (GLP-2 receptor; read-out: EC50, GLP-2 activity, Table 4 experiment): 7.7 nM
B2: GLP-2-Fc homodimer: GLP-2 homodimer fused with Fc not containing the Knobs-into-Holes (KiH) structure (protein)
chain: B1 chain 2
modifications: first fusion protein of bispecific fusion protein containing GLP-1 analogue
notes: GLP-2 homodimer fused with Fc not containing the Knobs-into-Holes (KiH) structure
small intestine weight (B6 normal mice): statistically significant increase | weight change before autopsy (body weight) (B6 normal mice): no change | SUV (Standardized Uptake Value) in liver, small intestine and large intestine (Balb/c-nude mice): SUV values were increased compared to Fc in all of the three organs | relative activity (%), GLP-2 activity (GLP-2 receptor; compared to GLP-2-Fc homodimer): 100%
